From patent US20110158954A1, “METHOD FOR PRODUCING GAMMA DELTA T CELL POPULATION” (priority 2007, published 2011)

Legend:
γδ T cells = assay: Expansion of γδ T cell population using pamidronate or IPP (Example 1); assay type: cell-based; conditions: human PBMCs, IL-2 20 U/mL, immobilized FN fragment, day 14
Description: Apheresis was performed, or 50 mL blood was collected from human healthy donor obtained with informed consent. The collected blood was then diluted 2-folds with phosphate buffered saline (manufactured by NEXELL or SIGMA, hereinafter referred to as “PBS”), overlaid on Ficoll-paque (manufactured by GE Healthcare Bio-Science), and centrifuged at 600×g for 20 minutes. Peripheral blood mononuclear cells (hereinafter referred to as “PBMCs”) in an intermediate layer were collected with a pipette, and washed. The collected PBMCs were suspended in a storage solution composed of 90% (v/v) FBS (manufactured by MP Biomedicals, LLC)/10% (v/v) DMSO (manufactured by SIGMA), or a storage solution composed of equivolumes of CP-1 (manufactured by KYOKUTO PHARMACEUTICAL INDUSTRIAL CO., LTD.) containing 8% (w/v) human serum albumin (name of formulation: Buminate, manufactured by Baxter Limited, hereinafter referred as to “HSA”) and an RPMI 1640 medium (manufactured by SIGMA), and stored in liquid nitrogen. During expansion of γδ T cells, these stored PBMCs were rapidly melted in water bath at 37° C., and washed with RPMI 1640 medium containing 10 μg/mL DNase (manufactured by Calbiochem), 10% (v/v) human AB serum (manufactured by Cambrex), 2 mM L-glutamine (manufactured by Cambrex), and 100 μg/mL streptomycin sulfate (manufactured by MEIJI SEIKA KAISHA, LTD.) (hereinafter referred to as “10HRPMI+L-Gln”) or Iscove's Modified Dulbecco's Medium (IMDM) (manufactured by Invitrogen) containing 10 μg/mL DNase and 10% (v/v) human AB serum (hereinafter referred to as “10HIMDM”). Thereafter, the number of live cells was calculated by trypan blue staining method. The cells were subjected to each experiment.
A fibronectin fragment (hereinafter referred to as a “FN fragment”) (CH-296 and H296-H296) was immobilized on a culture equipment used in the following experiment. Concretely, a buffer having a pH of 5.0 composed of 2.20% (w/v) sodium citrate dihydrate, 0.80% (w/v) citric acid monohydrate and 2.20% (w/v) glucose (all manufactured by Nakalai Tesque Inc.) (hereinafter referred to as “ACD-A solution (pH 5.0)”), containing CH-296 (final concentration: 25 μg/mL) or H296-H296 (final concentration: 3 μg/mL), was added to a 24-well cell culture plate (manufactured by Becton Dickinson or Corning), in a volume of 240 μL each.
These culture equipments was incubated for 5 hours or more at room temperature. Immediately before use, the ACD-A solution (pH 5.0) containing CH-296 or H296-H296 was removed by aspiration from these culture equipments, and thereafter each well was washed with twice PBS, and then once with RPMI 1640 medium, and the culture equipments were subjected to each experiment. As a control, a plate to which nothing was immobilized was used.
PBMCs prepared in Example 1-(1) were suspended in 10HRPMI+L-Gln or 10HIMDM so as to have a concentration of 1×10^6 cells/mL, to prepare a cell suspension. Thereafter, the above-mentioned cell suspension was added to a plate to which nothing was immobilized or a plate immobilized with CH-296 or H296-H296, prepared in Example 1-(2), in a volume of 1 mL/well each. […]

K562 cells = assay: Cytotoxic activity of cultured γδ T cell population, Calcein-AM release; assay type: cell-based, human; conditions: γδ T cells expanded 14 days with pamidronate on immobilized FN fragment; target cells K526 (so in the source); E/T 30; 4 hours
Description: The cytotoxic activity was determined for the cells on the fourteenth day from the initiation of culture prepared in Example 3-(1). The cytotoxic activity was evaluated by a method for assaying cytotoxic activity using Calcein-AM [Lichtenfels R. et al., J. Immunol. Methods 172(2), 227-239 (1994)]. […]
The cells on the fourteenth day from the initiation of culture prepared in Example 3-(1) were diluted with an RPMI 1640 medium containing 5% (v/v) human AB serum, 0.1 mM NEAA mixture, 1 mM sodium pyruvate (all manufactured by Cambrex), 2 mM L-glutamine, 10 μg/mL streptomycin sulfate (hereinafter referred to as “5HRPMI”) as effector cells, so as to have a concentration of 3×10^6 cells/mL. […] Upon the addition, the ratio of the effector cells (E) to the Calcein-labeled target cells (T) is expressed as an E/T ratio, and the measurements were made at an E/T ratio of 30. […] Thereafter, 100 μL of the culture supernatant was collected from each well, and the amount of Calcein released into the culture supernatant was determined with a fluorescence plate reader (Mithras LB 940, manufactured by BERTHOLD TECHNOLOGIES) (excited at 485 nm/measured at 535 nm). The “cytotoxic activity (%)” was calculated in accordance with the following formula.
Cytotoxic Activity (%)={(Measured Value in Each Well−Minimum Released Amount)/(Maximum Released Amount−Minimum Released Amount)}×100 […]

[1] = medium 10HRPMI + L-Gln, stimulant pamidronate 5 μM

Row | Molecule | Expansion Fold of γδ T Cells (Folds) Fourteenth Day of Culture (γδ T cells; [1]) | Cytotoxic Activity (%) (K562 cells) | Expansion Fold of γδ T Cells (Folds) Fourteenth Day of Culture (γδ T cells; medium 10HIMDM, stimulant IPP 5 μM) | Expansion Fold of γδ T Cells (Folds) Fourteenth Day of Culture (γδ T cells; medium 10HIMDM, stimulant pamidronate 5 μM) | Expansion Fold of γδ T Cells (Folds) Fourteenth Day of Culture (γδ T cells; medium 10HRPMI + L-Gln, stimulant IPP 5 μM)
1 | CH-296: polypeptide comprising a cell binding domain, a heparin binding domain and a CS-1 domain of fibronectin (SEQ ID NO: 13) | ×3.85 Folds | 25.45 | – | – | –
2 | H296-H296: modified fibronectin fragment in which two H-296's are connected to each other (SEQ ID NO: 22) (protein, Fibronectin fragment named H296-H296) AIPAPTDLKFTQVTPTSLSAQWTPPNVQLTGYRVRVTPKEKTGPMKEINLAPDSSSVVVSGLMVATKYEVSVYALKDTLTSRPAQGVVTTLENVSPPRRARVTDATETTITISWRTKTETITGFQVDAVPANGQTPIQRTIKPDVRSYTITGLQPGTDYKIYLYTLNDNARSSPVVIDASTAIDAPSNLRFLATTPNSLLVSWQPPRARITGYIIKYEKPGSPPREVVPRPRPGVTEATITGLEPGTEYTIYVIALKNNQKSEPLIGRKKTDELPQLVTLPHPNLHGPEILDVPSTAMAIPAPTDLKFTQVTPTSLSAQWTPPNVQLTGYRVRVTPKEKTGPMKEINLAPDSSSVVVSGLMVATKYEVSVYALKDTLTSRPAQGVVTTLENVSPPRRARVTDATETTITISWRTKTETITGFQVDAVPANGQTPIQRTIKPDVRSYTITGLQPGTDYKIYLYTLNDNARSSPVVIDASTAIDAPSNLRFLATTPNSLLVSWQPPRARITGYIIKYEKPGSPPREVVPRPRPGVTEATITGLEPGTEYTIYVIALKNNQKSEPLIGRKKTDELPQLVTLPHPNLHGPEILDVPST | ×5.76 Folds | – | ×4.39 Folds | ×3.18 Folds | ×16.27 Folds
